PMC2133122
Values joined by “and” are separate entries in the source; they are usually repeats but may differ in a detail not shown here. Equal entries are not always repeated.

Columns and labels:
[1] = target: mutant mtHsp70 encoded by the allele ssc1-2 (Ssc1-2p) (S. cerevisiae (endogenous in yeast mitochondria)) (UniProt P0CS90); assay: co-IP
[2] = target: mitochondrial Hsp70 (mtHsp70, Ssc1p), wild type (S. cerevisiae (endogenous in yeast mitochondria)) (UniProt P0CS90); assay: co-IP

| Substance | fold efficiency of binding against wild-type mtHsp70 [1] | fold reduction of complex formation with mtHsp70 against authentic Tim44 [2] | percent reduction of complex formation with mtHsp70 against authentic Tim44 [2] |
| --- | --- | --- | --- |
| Su9-DHFR, imported into mitochondria (from UniProt P00375 1-187) | > 4 fold |  |  |
| Tim44Δ18 (Tim44 with a deletion of residues 185–202) (natural protein) |  | 3 fold and 4 fold | 70% |
